Switch fluorescence ratio data for 66 sequences are collected here from the supplement of paper PMC10126150.

± gives the standard deviation of the averaged measurements.

For the data set, the system named is ATP. Briefly: switch fluorescence ratio, 500 uM ATP over buffer (Cy3 cluster intensity, sum of 5 cycles each) (fold (ratio)); higher = stronger signal-on switching upon ATP binding; sequences stand for … in TCGTCGGCAGCGTCAGATGTGTATAAGAGACAGTTTTTTTTTTTTTTTTTTTTTTTTT…TC. The note with it: aptamer strand: ATP DNA aptamer (quencher-CACCTGGGGGAGTATTGCGGAGGAAGG + anchor), 100 nM annealed; ATP concentration: 500 uM. The procedure, abridged: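 Clusters carrying Cy3-labelled switching strands on a modified Illumina MiSeq flow-cell were annealed to 100 nM quencher-labelled ATP aptamer and imaged in selection buffer. They were imaged again after 15 min with 500 uM ATP at 22 °C, over five buffer/ATP cycles with NaOH stripping and re-annealing in between. For each cluster, the fluorescence ratio is the summed Cy3 intensity of the target cycles divided by that of the buffer cycles, averaged per switch-domain sequence. Clusters outside 100-1000 RFU were left out.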
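Note: ATP exposure 15 min at 22 °C before imaging.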

Turning to TCGGTGTTTT, the switch fluorescence ratio came to 1.05 ± 0.055.
The result for TCTTTATACT reads 1.05 ± 0.034.
On to GTAAATATGG, for which the switch fluorescence ratio came out at 0.987 ± 0.024.
The result for TTTTCCAAGG reads 1.06 ± 0.031; that for CGGAGGGGCT, 1.03 ± 0.015.
Then AGCAGGAGCC, with 1.061 ± 0.0063.
On to AATGGCGTTG, for which the switch fluorescence ratio came to 1 ± 0.057.
Consider TTGGTATTAT, for which the switch fluorescence ratio came out at 0.986 ± 0.02.
Then GTTGGGTGTG, with 1.02 ± 0.019; and GAGTTTTGGA, with 1.02 ± 0.026; and TAATGCTAAT, with 1.07 ± 0.073.
Then TTTGGTTGAC, with 1.02 ± 0.053; and TCAAATTTTC, with 1.02 ± 0.026; and TGAAACCACT, with 1.1 ± 0.013.
The result for TGGGGGGCGC reads 0.989 ± 0.025; that for CGCGGAGTGA, 1.002 ± 0.01.
As for TAACCACCTT, the switch fluorescence ratio was 1.12 ± 0.044.
For GCTGAAAGGA, the switch fluorescence ratio was 0.999 ± 0.061.
In the case of GATAGTCGTG, the switch fluorescence ratio stood at 0.994 ± 0.0056.
Then GCTGATGATA, with 0.967 ± 0.026; and AAGAGAGAGC, with 0.989 ± 0.007; and GGGAGCCGGT, with 1.02 ± 0.015.
On to CGGGTTGTGG, for which the switch fluorescence ratio was determined as 1.02 ± 0.062.
Then ATAGTCCATA, with 0.991 ± 0.015; and CGGCTGGGGA, with 1.03 ± 0.017.
Consider GGTGGGTATA, for which the switch fluorescence ratio was determined as 1 ± 0.037.
Then CCGGCCCACA, with 1.266 ± 0.0065; and ATGAGGGTAG, with 1.02 ± 0.034.
With CTAACTGCAT, the switch fluorescence ratio was determined as 1.18 ± 0.031.
The result for ATGTAATAGT reads 1.014 ± 0.0069.
The result for AGTTCGTTA reads 0.9861 ± 0.0056.
The result for GGTATGTTTG reads 0.96 ± 0.043; that for AGGAATGTTA, 1.03 ± 0.018; that for TGTATTGAAC, 1.03 ± 0.0024.
For the sequence CGTGTAATGG, the switch fluorescence ratio came to 1.042 ± 0.0015.
Consider TTAGGATGTT, for which the switch fluorescence ratio was 1.0069 ± 0.00069.
Then AAATGCCGTT, with 0.982 ± 0.015; and GAGGGGCGAC, with 0.974 ± 0.032; and GCTGGCACAC, with 1.04 ± 0.021.
As to TCGTGAGGCT, the switch fluorescence ratio is 0.989 ± 0.036.
The result for GGGGGGCAAA reads 1 ± 0.015; that for ATTATGGTTA, 0.9884 ± 0.0097.
For the sequence AATAACGGTG, the switch fluorescence ratio is 1.07 ± 0.019.
As to TGGGGTGGCA, the switch fluorescence ratio was determined as 1.01 ± 0.045.
On to TTTGGTTAAT, for which the switch fluorescence ratio worked out at 0.959 ± 0.027.
Regarding TGTTGCGTTA, the switch fluorescence ratio turned out to be 0.985 ± 0.021.
For the sequence CGGCCAGGAA, the switch fluorescence ratio turned out to be 1.05 ± 0.024.
Take GGGGCTAAGA: the switch fluorescence ratio was 0.993 ± 0.015.
Regarding AAATCTCTTA, the switch fluorescence ratio turned out to be 0.997 ± 0.015.
As for CGGTGTTGGC, the switch fluorescence ratio is 1.05 ± 0.081.
Take TGGCAATGAA: the switch fluorescence ratio turned out to be 1.28 ± 0.35.
Consider GTTTTTGTGT, for which the switch fluorescence ratio turned out to be 0.987 ± 0.025.
TTTTGCGCCG: the switch fluorescence ratio was determined as 1.06 ± 0.06.
The result for GAGTGCCGTG reads 1.01 ± 0.065; that for CATATGGGGC, 1.048 ± 0.00092.
The result for TTAGTCAGGG reads 1.02 ± 0.024; that for AATATATTGG, 1.028 ± 0.0042.
The result for ATGATGGACG reads 1.03 ± 0.062.
Regarding AATAGTACTG, the switch fluorescence ratio was determined as 1 ± 0.071.
The result for TCATGCAACG reads 1.06 ± 0.06.
Then GGGTGTTAGA, with 1 ± 0.014; and CTCTGCTCGC, with 4.15 ± 0.55.
Then GAGGCATGGG, with 1.027 ± 0.0065; and CTATCGGGTA, with 0.9966 ± 0.0097; and GAAAAGCATG, with 0.988 ± 0.043.
Take TTGTGTGTAG: the switch fluorescence ratio stood at 1.04 ± 0.033.
